This note sets out measurements from article PMC10397247.

Test in all cases: two-hybrid library CCNG1;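 also: natural log of median RNA to DNA barcode read ratio; higher means stronger binding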
One experiment concerns the target T1, 4H2692-bN.
T1 chain: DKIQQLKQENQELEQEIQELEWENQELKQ

For a further experiment, the target named is T2, 4H2223-bN.
T2 chain: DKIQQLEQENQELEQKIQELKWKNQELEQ

A further experiment has as its target T3, 4H908-bN.
T3 chain: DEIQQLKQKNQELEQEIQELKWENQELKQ

A further experiment concerns the target T4, 4H2915-bN.
T4 chain: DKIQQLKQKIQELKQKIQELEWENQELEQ

In the next experiment the target is T5, 4H2588-bN.
T5 chain: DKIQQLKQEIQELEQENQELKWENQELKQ

A further experiment addresses T6, 4H182-bN.
T6 chain: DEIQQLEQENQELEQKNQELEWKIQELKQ

Another experiment addresses T7, 4H3057-bN.
T7 chain: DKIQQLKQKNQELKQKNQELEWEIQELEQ

The target in the next experiment is T8, 4H2438-bN.
T8 chain: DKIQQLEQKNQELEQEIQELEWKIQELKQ

For the next experiment, the target named is T9, 4H348-bN.
T9 chain: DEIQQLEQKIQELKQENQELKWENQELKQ

Another experiment deals with T10, 4H462-bN.
T10 chain: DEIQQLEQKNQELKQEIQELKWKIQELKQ

The next experiment addresses T11, 4H2473-bN.
T11 chain: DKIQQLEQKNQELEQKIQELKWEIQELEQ

In the next experiment the target is T12, 4H477-bN.
T12 chain: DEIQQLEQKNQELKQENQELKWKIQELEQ

In another experiment the target is T13, 4H2134-bN.
T13 chain: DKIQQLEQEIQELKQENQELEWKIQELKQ

For a further experiment, the target named is T14, 4H3277-bN.
T14 chain: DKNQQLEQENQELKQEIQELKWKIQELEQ

The target of a further experiment is T15, 4H2717-bN.
T15 chain: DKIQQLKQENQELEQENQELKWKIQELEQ

Another experiment has as its target T16, 4H2143-bN.
T16 chain: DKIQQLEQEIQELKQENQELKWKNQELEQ

A further experiment concerns the target T17, 4H492-bN.
T17 chain: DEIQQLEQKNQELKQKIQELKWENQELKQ

The next experiment addresses T18, 4H2503-bN.
T18 chain: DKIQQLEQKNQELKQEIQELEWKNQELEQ

A further experiment concerns the target T19, 4H741-bN.
T19 chain: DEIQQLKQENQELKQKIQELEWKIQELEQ

The target in a further experiment is T20, 4H2839-bN.
T20 chain: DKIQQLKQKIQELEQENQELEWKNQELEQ

The target in the next experiment is T21, 4H575-bA.
T21 chain: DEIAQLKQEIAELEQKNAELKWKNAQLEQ

The next experiment deals with T22, 4H40-bN.
T22 chain: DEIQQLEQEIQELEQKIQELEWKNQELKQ

A further experiment deals with T23, 4H319-bN.
T23 chain: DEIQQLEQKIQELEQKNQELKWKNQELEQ

Another experiment concerns the target T24, 4H2696-bA.
T24 chain: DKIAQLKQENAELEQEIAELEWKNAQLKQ

The target in another experiment is T25, 4H491-bA.
T25 chain: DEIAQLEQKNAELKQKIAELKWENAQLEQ

The target in the next experiment is T26, 4H2883-bA.
T26 chain: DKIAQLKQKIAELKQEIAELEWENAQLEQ

In the next experiment the target is T27, 4H342-bA.
T27 chain: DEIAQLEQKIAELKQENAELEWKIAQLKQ

A further experiment has as its target T28, 4H48-bA.
T28 chain: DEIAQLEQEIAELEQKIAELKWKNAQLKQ

The target in another experiment is T29, 4H2944-bA.
T29 chain: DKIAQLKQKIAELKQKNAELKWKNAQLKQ

A further experiment concerns the target T30, 4H2937-bA.
T30 chain: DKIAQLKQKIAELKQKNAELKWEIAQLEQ

On to DEIQQLEQENQELEQKNQELEWKIQELKQ [4H182-bN], for which the interaction score with 4H2692-bN was 0.536; with 4H2223-bN, -0.0217; with 4H908-bN, -2.24; in the experiment with 4H2915-bN, 0.186; in the experiment with 4H2588-bN, -0.916; with 4H182-bN, -0.13. The interaction score with 4H3057-bN is 2.24; in the experiment with 4H2438-bN, -0.143; with 4H348-bN, -0.689; in the experiment with 4H462-bN, -0.134; with 4H2473-bN, -0.481; with 4H477-bN, -1.61. Besides, the interaction score with 4H2134-bN was -0.568; with 4H3277-bN, -0.0991; with 4H2717-bN it was 0.137; in the experiment with 4H2143-bN, -0.437; with 4H492-bN it was 0.471; with 4H2503-bN it was -0.284. The interaction score with 4H741-bN is -0.228; with 4H2839-bN it was 0.367; in the experiment with 4H575-bA, -2.96; with 4H40-bN, 0.0984; with 4H319-bN, -0.552.

With DKIAQLKQENAELEQEIAELEWKNAQLKQ [4H2696-bA], the interaction score in the experiment with 4H2696-bA is -0.668; in the experiment with 4H491-bA it was 1.93; with 4H2883-bA, 0.674; with 4H342-bA, -0.319; with 4H48-bA, -0.267; in the experiment with 4H2944-bA it was 0.173. Moreover, the interaction score with 4H2937-bA amounted to 0.659.
